Laboratory results reported in the nanobody polyreactivity screen of Harvey et al. (2022).

Assay: yeast display, Sf9 membrane polyspecificity reagent, FACS + sequencing; frameworks hold sequencing errors
Procedure, shortened: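 Polyreactivity labels are assigned by the sorting gate from which each nanobody was recovered. The gates were low and high (top ~1%), set on anti-HA fluorescence for expression and streptavidin fluorescence for reagent binding. Before sorting, galactose-induced (36–48 hours) yeast display cells were stained for 1 hour at 4 °C with 10% biotinylated, detergent-solubilized Sf9 membrane reagent.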

Row | Sequence | polyreactivity (PSR sort gate)
1 | QVQLVESGGGLVQAGGSLRLSCAASGFTFSSYAMGWYRQAPGKERELVAAISRSGGSTYYADSVKGRFTISRDNAKNTVYVQMNSLKPEDTAVYYCAARFFARHYYWGQGTQVTVSS | high polyreactivity
2 | QVQLVESGGGLVQAGGSLRLSCAASGFTFSSYAMGWYRQAPGKERELVAAITRSGGNTYYADSVKGRFTISRDYAKNTVYLQMNSLKPEDTAVYDCAAPGKGISPSHYYWGQGTQVTVSS | high polyreactivity
3 | QVQLVESGGGLVQAGGSLRLSCAASGFTFSSYAMGWYRQAPGKERELVAAITTRGGTFYADSVKGRFTISRDNAKNTVYLQMNSLKPEDTAVYYCAARRVSGRGYWGQGTQVTVSS | high polyreactivity
4 | QVQLVESGGGLVQAGGSLRLSCAASGFTFSTNAMGWYRQAPGKERELVAAISWSGSSTYYADSVKGRFTISRDNAKNTVYLQMNSLKPEDTAVYYCAKSRGQADPTYDYWGQGTQVTVSS | low polyreactivity
5 | QVQLVESGGGLVQAGGSLRLSCAASGFTFSTYAMGWYRQAPGKERELVAAISFSGGSTYYADSVKGRFTISRDNAKNTVYLQMNSLKPEDTAVYYCNAVFGYRLPGNYWGQGTQVTVSS | low polyreactivity
6 | QVQLVESGGGLVQAGGSLRLSCAASGFTFSTYAMGWYRQAPGKERELVAAITRSGGSTYYADSVKGRFTISRDNAKNTVYLQMNSLKPEDTAVYYCATDASFYDPDLYPYGYDYWGQGTQVTVSS | high polyreactivity
7 | QVQLVESGGGLVQAGGSLRLSCAASGFTFSVNAMVWYRQAPGKERELVAAISSRGSITYYADSVKGRFTISRDNAKNTVYLQMNSLKPEDTAVYYCAAKPLTGSSWEDYYWGQGTQVTVSS | high polyreactivity
8 | QVQLVESGGGLVQAGGSLRLSCAASGFTFSVYAMGWYRQAPGKERELVATITDSGSTNYADSVKGRFTISRDNAKNTVYLQMNSLKPEDTAVYYCNADFRRYVTYHYYRAVIHHDYWGQGTQVTVSS | high polyreactivity
9 | QVQLVESGGGLVQAGGSLRLSCAASGFTFSWYAMGCYRQAPGKVRELVAAITSRGGITYYADSVKGRFTISRDNAKNTVYLQMNSLKPEDTAVYYCNAYSQRYGYYYWGQGTQVTVSS | high polyreactivity
10 | QVQLVESGGGLVQAGGSLRLSCAASGFTFSWYPMGWYRQAPGKERELVAAITSGGGTNYADSVKGRFTISRDNAKNTVYLQMNSLIPEDTAVYYCAARGRWFYYLDDYWGQGTQVTVSS | low polyreactivity
11 | QVQLVESGGGLVQAGGSLRLSCAASGFTFSWYTMGWYRQAPGKERELVAAITSGGSTNYADSVKGRFTISRDNAKNTVYLQMNSLKPEDTAVYYCNAYWSYSISGYDYWGQGTQVTVSS | low polyreactivity
12 | QVQLVESGGGLVQAGGSLRLSCAASGFTFSYNSMGRYRQATGKERELVARISRTGGSTNYADSVKGRFTISRDNAKNTVYLQMNSLKPEDTAVYYCGTGYRYTYGSWGQGTQVTVSS | high polyreactivity
13 | QVQLVESGGGLVQAGGSLRLSCAASGFTFSYYAMGWYRQAPGKERELVAAISGSGGSTYYADSVKGRFTISRDNAKNTVYLQMNSLKPEDTAVYYCNARWRTRGHPEMYHWGQGTQVTVSS | high polyreactivity
14 | QVQLVESGGGLVQAGGSLRLSCAASGFTFSYYAMGWYRQAPGKERELVAAISSGGSTYYADSVKGRFTISRDNAKNTVYLQMHRLKPEDTAVYYCNVLNYSSRHYLFSYDYWGQGTQVTVSS | high polyreactivity
15 | QVQLVESGGGLVQAGGSLRLSCAASGFTFSYYAMGWYRQAPGKERELVAAISWSGGSTYYADSVKGRFTISRDNAKNTVYLQMNSLKPEDTAVYYCARVLTRPGRLDYWGQGTQVTVSS | high polyreactivity
16 | QVQLVESGGGLVQAGGSLRLSCAASGFTFSYYAMGWYRQAPGKERELVAAITSGGRTYYADSVKGRFTISRDNAKNTVYLQMNSLKPEDTAVYYCATSSQRWFYSGNYWGQGTQVTVSS | high polyreactivity
17 | QVQLVESGGGLVQAGGSLRLSCAASGFTFSYYAMGWYRQAPGKERELVAAITSGGSTYYADYVKGRFTISRDNAKNTVYLQMNRLKPEDTAVYYCNADGWYYPTDDYWGQGTQVTVSS | low polyreactivity
18 | QVQLVESGGGLVQAGGSLRLSCAASGFTFSYYAMGWYRQAPGKERELVATITSGGSTYYADSVKGRFTISRDNAKNTVYLQMNSLKPEDTAVYYCNADWYWRVYWGQGTQVTVSS | high polyreactivity
19 | QVQLVESGGGLVQAGGSLRLSCAASGFTFSYYVMGWYRPAPGKDRELVAAIDWSGDSTYYPDSVKGRFTISRDNAKNTVYLQMISLKPEDTAVYYCAADQHAYYPYYYWGQGTQVTVSS | low polyreactivity
20 | QVQLVESGGGLVQAGGSLRLSCAASGFTFTAYAMGWYRQAPGKERELVAAINWSGSRTYYADSVKGRFTISRDNAKNTVYLQMNSLKPEDTAVYYCNTATSKSSYRHYDYWGQGTQVTVSS | high polyreactivity
21 | QVQLVESGGGLVQAGGSLRLSCAASGFTFTDYAMGWYRQAPAKERELVAVITYDSTYYADSVKGRFTISRDNAKNTVYLQMNSLKPEDTAVYYCAADSYDWGDFDYWGQGTEVTVSS | low polyreactivity
22 | QVQLVESGGGLVQAGGSLRLSCAASGFTFTDYTMGWYIQAPGTEREFVAAISYRGSNTYYADSVKGRFTISRDNAKNTVYLQMNSLKPLDTAVYYCAADSYRYKYNYWGQGTQVTVSS | high polyreactivity

Row | Sequence | polyreactivity (PSR sort gate)
23 | QVQLVESGGGLVQAGGSLRLSCAASGFTFTGNAMGWYRPAPGKERELVAAISRSGGSTFYADSVKGRFTISRDNAKNTVYLQMNSLKPEDTAVYYCAARRRTLNYLYDYWGQGTQVTVSS | high polyreactivity
24 | QVQLVESGGGLVQAGGSLRLSCAASGFTFTGYAMGWYRQAPGKERELVAAINRSGGTTYYADSVKGRFTISRDNAKNTVYLQMNSLKPEDTAVFYCAAFPSGRHRGDYWGQGTQVTVSS | high polyreactivity
25 | QVQLVESGGGLVQAGGSLRLSCAASGFTFTGYAMGWYRQAPGKERELVAVISSRGGSTYYADSVKGRFTISRDNAKNTVYLQMNSLKPEDTAVYYCAARGSKGFSSPFGYWGQGTQVTVSS | high polyreactivity
26 | QVQLVESGGGLVQAGGSLRLSCAASGFTFTHYAMGWYRQAPGKERELVAAITDTGGGTYYADSVKGRFTISRHNAKNTVYLQMNSLKPQDTAVYYCAKPTSYRGYYSWGQGTQVTVSS | high polyreactivity
27 | QVQLVESGGGLVQAGGSLRLSCAASGFTFTIYAMGWYRQAPGKERELVATISGRAGRTYYADSVKGRFTISRDNAKNTVYLQMNSLKPEDTAVYYCNAGQWRYPGLYYYWGQGTQVTVSS | high polyreactivity
28 | QVQLVESGGGLVQAGGSLRLSCAASGFTFTKNAMGWYRQAPGKERELVAAISRGGGRTYYADSVKGRFTISRDNAKNTVYLQMNSLKPEDTAVYYCNVDKVGPGYDYWGQGTQVTVSS | high polyreactivity
29 | QVQLVESGGGLVQAGGSLRLSCAASGFTFTKYAMGWYIQATGKERELVAAISRSGSSTYYADSVKGRFTISRDNAKNTVYLQMNSLKPEDTAVYYCAADNGYGDYYYWGQGTQVTVSS | high polyreactivity
30 | QVQLVESGGGLVQAGGSLRLSCAASGFTFTKYAMGWYRQAPGKERELVAAISGRGGSTYYADSVKGRFTISRDNAKNTVYLQMNSLKPEDTAVYYCAKYRYTVAGYNYWGQGTQVTVSS | high polyreactivity
31 | QVQLVESGGGLVQAGGSLRLSCAASGFTFTNNAMGWYRQAPGKERELVAAIRRSGTNTYYADSVKGRFTISRDNAKNPVYLQMNSLKPEDTAVYYCATDGYEYTDYGSSGYDYWGQGTQVTVSS | low polyreactivity
32 | QVQLVESGGGLVQAGGSLRLSCAASGFTFTQYVKGWYRQAPGKERELVAAITRGGGSTYYADSVKGRFTISRDNAKNTVYLQMNRLKPEDTAFYYCATRRVEYIRGWVEYDYWGQGTQVTVSS | low polyreactivity
33 | QVQLVESGGGLVQAGGSLRLSCAASGFTFTRNAMGRYRQAPGKERELVAAITSSGGRTYYADSVKGRFTISRDNAKNTVYLQMNSLKPVDTAVYYCAVYPRYSLPARDYDYWGQGTQVTVSS | high polyreactivity
34 | QVQLVESGGGLVQAGGSLRLSCAASGFTFTRNAMGWYRQAPGKERELVAAISKSGGRTYYADSVKGRFTISRDNAKNTVYLKMNSLKPEDSAVYYCAVVPRPFGLGSDYDYWGQGTQVTVSS | high polyreactivity
35 | QVQLVESGGGLVQAGGSLRLSCAASGFTFTRNAMGWYRQAPGKERELVAASTWSGGSTYYADSVKGRFTISRDNAKNTVYLQMNSLKPEDTAVYDCAALYRSRYYAGDYWGQGTQVTVSS | high polyreactivity
36 | QVQLVESGGGLVQAGGSLRLSCAASGFTFTRNAMGWYRQAPGKERFVAAITGSGASTYYADSVKGRFTISRDNAKNTVYLQMNSLKPEDTAVYYCNAEYYAGRYRYDYWGQGTQVTVSS | high polyreactivity
37 | QVQLVESGGGLVQAGGSLRLSCAASGFTFTRYAMGWSRQAPGKETELVAAISSGSRTYYADSVKGRFTISRDNAKNTVYLQMNSLKPEDTAVYYCAAPVYTYYGHYDSWGQGTQVTVSS | high polyreactivity
38 | QVQLVESGGGLVQAGGSLRLSCAASGFTFTRYGMGWYRQSPGKERELVAGISSGGSTNYADSVKGRFTISRDNSKNTVYLQMNSLKPEDTAVYYCAAGFYSHGIELGYWGQGTQVTVSS | high polyreactivity
39 | QVQLVESGGGLVQAGGSLRLSCAASGFTFTSYAMGWYRQAPGKERELVAAINRSGGSTTYADSVKGRFTISRDNAKNTVYLQMNSLNPEDTAVYYCAKAFRGHYWGQGTQVTVSS | high polyreactivity
40 | QVQLVESGGGLVQAGGSLRLSCAASGFTFTTNAMGWYRQAPGKERELVAAISKRGTRTYYADSVKGRFTISRDNAKNTVYLQMNSLKPEDTAVYYCAAASVAGDKFDYWGQGTQVTVSS | high polyreactivity
41 | QVQLVESGGGLVQAGGSLRLSCAASGFTFTTYGMGWSRQAPWKERELVAAISWSGGSTYYADSVKGRFTISRDNAKNTVYLQMNSLNPEYTAVYYCAKDRTYQASTLGYWGQGTQVTVSS | low polyreactivity
42 | QVQLVESGGGLVQAGGSLRLSCAASGFTFTTYVMGSYRQAPGKERELVAAISRRGTSTRYADSVKGRFTISRDNAKNTVYLQMNSLKPEDTAVYYCAADRPYSIVPYDYWGQGTQVTVSS | high polyreactivity
43 | QVQLVESGGGLVQAGGSLRLSCAASGFTFTWNTMGWYRQAPGKERELVAAITTGGRTYYADSVKGRFTISRDNAKNTVYLQMNSLKPEDTAVYYCNKLFIAKYDSWGQGTQVTVSS | high polyreactivity
